Laboratory results taken from patent publication US20200069775A1, “BRAIN OSTEOCALCIN RECEPTOR AND COGNITIVE DISORDERS” (The Trustees of Columbia University in the City of New York, priority 2017, published 2020).

Target: T1, Gpr158 (Mus musculus, UniProt Q8C419)
T1 sequence (Q8C419 25-1200): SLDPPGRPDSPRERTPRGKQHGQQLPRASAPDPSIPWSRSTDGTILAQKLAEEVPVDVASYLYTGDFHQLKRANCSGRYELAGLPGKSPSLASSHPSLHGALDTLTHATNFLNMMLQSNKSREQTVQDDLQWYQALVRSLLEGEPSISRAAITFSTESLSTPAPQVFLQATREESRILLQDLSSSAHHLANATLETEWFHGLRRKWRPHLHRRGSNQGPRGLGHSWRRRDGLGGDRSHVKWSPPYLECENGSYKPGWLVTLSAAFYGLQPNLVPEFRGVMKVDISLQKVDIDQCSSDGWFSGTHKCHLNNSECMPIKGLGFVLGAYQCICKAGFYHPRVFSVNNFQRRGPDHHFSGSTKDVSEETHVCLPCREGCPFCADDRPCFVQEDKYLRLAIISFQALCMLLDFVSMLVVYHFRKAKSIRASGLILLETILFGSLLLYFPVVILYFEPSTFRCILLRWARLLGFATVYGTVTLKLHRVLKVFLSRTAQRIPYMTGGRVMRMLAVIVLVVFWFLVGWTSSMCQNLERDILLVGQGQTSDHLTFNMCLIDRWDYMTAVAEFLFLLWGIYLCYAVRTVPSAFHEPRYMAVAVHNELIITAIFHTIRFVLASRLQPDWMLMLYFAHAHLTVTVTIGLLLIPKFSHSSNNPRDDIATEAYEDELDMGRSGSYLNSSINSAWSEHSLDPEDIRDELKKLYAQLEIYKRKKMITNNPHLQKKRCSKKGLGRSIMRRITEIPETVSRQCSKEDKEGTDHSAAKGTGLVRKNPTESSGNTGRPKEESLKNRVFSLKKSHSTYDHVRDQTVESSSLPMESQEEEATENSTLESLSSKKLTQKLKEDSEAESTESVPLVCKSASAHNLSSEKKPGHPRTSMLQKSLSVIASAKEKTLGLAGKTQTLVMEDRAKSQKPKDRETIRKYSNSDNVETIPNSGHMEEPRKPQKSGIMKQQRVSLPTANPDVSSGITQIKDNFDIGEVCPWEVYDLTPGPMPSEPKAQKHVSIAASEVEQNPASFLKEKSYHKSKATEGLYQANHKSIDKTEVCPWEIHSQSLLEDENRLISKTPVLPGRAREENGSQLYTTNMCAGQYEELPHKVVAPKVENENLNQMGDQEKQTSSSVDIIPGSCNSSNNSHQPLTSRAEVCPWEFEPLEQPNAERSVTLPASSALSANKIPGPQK
Assay: Bdnf expression (qPCR) in WT and Gpr158−/− hippocampal neurons
Type: cell-based
Parameters: visually identified pyramidal neurons in the CA3 area of the hippocampus; from tissue; host or cells: coronal hippocampal slices of 3-4 week old male WT and Gpr158-/- mice
Conditions: WT vs Gpr158−/− hippocampal neurons, 4 hours
Procedure: FIG. 15. Function analysis of Osteocalcin signaling through Gpr158. (Panel a) IP1 accumulation in WT and Gpr158−/− hippocampal neurons (DIV 15) treated with either vehicle or osteocalcin for 1 hour. Glutamate was used as a positive control. (Panel b) Expression (qPCR) of Th and Bdnf in the midbrain of 6 month-old Gpr158+/− and WT littermates. (Panel c) Expression (qPCR) of Bdnf in WT and Gpr158−/− hippocampal neurons (DIV 15) treated with either vehicle or osteocalcin for 4 hours. (Panel d) Osteocalcin's effect on spontaneous action potential (AP) frequency in CA3 pyramidal neurons in WT (4 of 4 cells) and Gpr158−/− mice. The bars above the recording traces indicate the application of osteocalcin. […] Number of entries and time spent (s) in the open arms were scored. […] Time spent in the lit compartment and open arms was measured. […] Total ambulation (cm) and time spent in the center of the arena (s) were measured. […] Preference index (time spent with novel object/total exploration time) was measured. […] Preference index (time spent with novel object/total exploration time) was measured. […] Percent freezing 24 hours after training was measured. […]
RNA was isolated from brain tissue using TRIZOL (Invitrogen). cDNA synthesis was performed following standard protocol, q-PCR analyses were done using specific quantitative PCR primers (sequences available upon request), and expressed relative to Gapdh levels. […]

With “osteocalcin: Recombinant osteocalcin bacterially produced, cleaved from the GST subunit; completely undercarboxylated at all three sites; full-length mouse osteocalcin (YLGASVPSPDPLEPTREQCELNPACDELSDQYGLKTAYKRIYGITI)” as the substance, how does the Bdnf expression read?
Its Bdnf expression is “increased Bdnf expression in WT significantly more than in Gpr158−/− hippocampal neurons”.
